# Values joined by “and” are separate entries in the source; they are usually repeats but may differ in a detail not shown here. Equal entries are not always repeated.
# Key:
# [1] = system: T1, PEPc PCC 7002 (Strep-column purified, mixed oligomer population); assay: malate dehydrogenase-coupled NADH assay, […] nm, Hanes-Woolf plot; assay type: biochemical, Picosynechococcus sp. PCC 7002; details: pH 7.5, 35 °C, mixed dimer/tetramer
# T1 construct: gene ppc; N-terminal Strep-tag kept, E. coli BL21, pETBB; dimer/tetramer mixture purified with Mg2+
# [2] = system: T2, T_PEPc PCC 7002 (tetramer fraction of PEPc from Synechococcus PCC 7002); assay: as above; assay type: biochemical, Picosynechococcus sp. PCC 7002; details: pH 8.0, 35 °C, SEC tetramer fraction
# T2 construct: gene ppc; N-terminal Strep-tag kept, E. coli BL21, pETBB
# [3] = molecular target: Phosphoenolpyruvate carboxylase (PEPc) from Synechococcus PCC 7002 (Synechococcus PCC 7002); assay: SEC; HiLoad 16/60 Superdex 200, 4 °C, TBS (100 mM Tris-HCl, 150 mM NaCl) pH 8.0, no addition; 500 µg protein at 0.87 mg/ml, incubated 30 min at room temperature in the same buffer; dimer and tetramer peaks
# [4] = molecular target: Phosphoenolpyruvate carboxylase (PEPc) from Synechococcus PCC 7002 (Synechococcus PCC 7002); assay: SEC; HiLoad 16/60 Superdex 200, 4 °C, TBS pH 8.0 with 5 mM NaHCO3 and 5 mM PEP; 500 µg protein at 0.87 mg/ml; dimer and tetramer peaks
# [5] = molecular target: Phosphoenolpyruvate carboxylase (PEPc) from Synechococcus PCC 7002 (Synechococcus PCC 7002); assay: SEC; HiLoad 16/60 Superdex 200, 4 °C, TBS pH 8.0 with 25 mM MgCl2 (Mg_25); 500 µg protein at 0.87 mg/ml; dimer and tetramer peaks
# [6] = molecular target: Phosphoenolpyruvate carboxylase (PEPc) from Synechococcus PCC 7002 (Synechococcus PCC 7002); assay: SEC; HiLoad 16/60 Superdex 200, 4 °C, TBS pH 8.0 with 5 mM PEP; 500 µg protein at 0.87 mg/ml; dimer and tetramer peaks
# [7] = molecular target: Phosphoenolpyruvate carboxylase (PEPc) from Synechococcus PCC 7002 (Synechococcus PCC 7002); assay: SEC; HiLoad 16/60 Superdex 200, 4 °C, TBS pH 8.0 with 10 mM MgCl2, 5 mM NaHCO3 and 5 mM PEP (in vitro reaction); 500 µg protein at 0.87 mg/ml; dimer and tetramer peaks
# [8] = molecular target: Phosphoenolpyruvate carboxylase (PEPc) from Synechococcus PCC 7002 (Synechococcus PCC 7002); assay: SEC; HiLoad 16/60 Superdex 200, 4 °C, TBS pH 8.0 with 10 mM MgCl2 and 5 mM NaHCO3; 500 µg protein at 0.87 mg/ml; dimer and tetramer peaks
# [9] = molecular target: Phosphoenolpyruvate carboxylase (PEPc) from Synechococcus PCC 7002 (Synechococcus PCC 7002); assay: SEC; HiLoad 16/60 Superdex 200, 4 °C, TBS pH 8.0 with 5 mM NaHCO3; 500 µg protein at 0.87 mg/ml; dimer and tetramer peaks
# [10] = molecular target: Phosphoenolpyruvate carboxylase (PEPc) from Synechococcus PCC 7002 (Synechococcus PCC 7002); assay: SEC-SAXS; Shodex KW-403 4.6 ml column, room temperature, 50 µl protein at 6.5 or 0.87 mg/ml in TBS pH 8.0 or TBS with 25 mM MgCl2; beamline B21, Diamond Light Source; three peaks analysed separately
# [11] = molecular target: Phosphoenolpyruvate carboxylase (PEPc) from Synechococcus PCC 7002 (Synechococcus PCC 7002); assay: SEC; HiLoad 16/60 Superdex 200, 4 °C, TBS pH 8.0 with 10 mM MgCl2 and 5 mM PEP; 500 µg protein at 0.87 mg/ml; dimer and tetramer peaks
# [12] = molecular target: Phosphoenolpyruvate carboxylase (PEPc) from Synechococcus PCC 7002 (Synechococcus PCC 7002); assay: SEC; HiLoad 16/60 Superdex 200, 4 °C, TBS pH 8.0 with 10 mM MgCl2 (Mg_10); 500 µg protein at 0.87 mg/ml; dimer and tetramer peaks
# [13] = 10 mM MgCl2, co-substrate NaHCO3 (5 mM in the standard assay)
# [14] = 10 mM MgCl2, co-substrate PEP (5 mM in the standard assay)
molecule,measurement,setting,value
C=C(OP(=O)(O)O)C(=O)O [PEP],Km,[1]; [13],1.06 mM
same,Km,[2]; [13],770 µM
Phosphoenolpyruvate carboxylase (PEPc) from Synechococcus PCC 7002 (enzyme),ratio tetramer:dimer (peak values) (tetramer:dimer),[3],0
same,stoichiometry N,[3],2
same,ratio tetramer:dimer (peak values) (tetramer:dimer),[4],0.8
same,stoichiometry N,[4],4 and 2
same,ratio tetramer:dimer (peak values) (tetramer:dimer),[5],1.4
same,stoichiometry N,[5],4 and 2
same,ratio tetramer:dimer (peak values) (tetramer:dimer),[6],1.1
same,stoichiometry N,[6],4 and 2
same,stoichiometry N,[7],4 and 2
same,ratio tetramer:dimer (peak values) (tetramer:dimer),[8],0.8
same,stoichiometry N,[8],4 and 2
same,ratio tetramer:dimer (peak values) (tetramer:dimer),[9],0
same,stoichiometry N,[9],2
same,stoichiometry N,[10],4 and 2
same,ratio tetramer:dimer (peak values) (tetramer:dimer),[11],1.3
same,stoichiometry N,[11],4 and 2
same,ratio tetramer:dimer (peak values) (tetramer:dimer),[12],0
same,stoichiometry N,[12],2
O=C(O)O [HCO3^−],Km,[1]; [14],0.97 mM
same,Km,[2]; [14],240 µM
